Data taken from US7612163B1, “Prokineticin 2β peptide and its use” (Janssen Pharmaceutica N.V., priority 2004, dated 2009).
Ends that are not written are not given here.

What was measured:
[1] = target: T1, human prokineticin receptor 2 (PKR2) (human, UniProt Q8NFJ6 1-384); experiment: cell-based or functional assay
[2] = target: T2, human prokineticin receptor 1 (PKR1) (human, UniProt Q8TCW9 1-393); experiment: cell-based or functional assay
[3] = target: T2, human prokineticin receptor 1 (PKR1); experiment: radioligand competition against 100 pM 125I-PK2-f on COS-7 cells expressing PKR1
Experimental: (§1) Radio-Ligand Binding Assays. PKR1 and PKR2 in the expression vector pCIneo (Promega) were transfected into COS-7 cells using LipofectAmine (Invitrogen). Two days after transfection, cells were detached from the culture dishes by 10 mM EDTA in PBS, washed with Dulbecco's Modified Eagle's Medium (DMEM) and seeded in 96-well opaque polylysine-coated plates (BD Biosciences, San Jose, Calif.) at a density of 50,000 cells per well. […] The binding assays were performed in DMEM plus 50 mM HEPES, pH 7.2 and 1% bovine serum albumin in a final volume of 100 µl. The binding assays were carried out at room temperature for 1 hour. After the plates were washed three times with ice cold PBS, Microscint-40 (Packard, Meriden, Conn.) was added and the plates were counted on a Topcount (Packard).
(§2) Different concentrations of PK1, PK2 or PK2β were added to the assays as the competitors. All assays were performed in triplicates. The results are mean values (±S.E.M) of triplicates. Figure 4B:
(§3) Prokineticins bind PKR1 and PKR2 with different affinities. With the purified PK2β available, it was investigated whether PK2β binds PKR1 or PKR2 in comparison with PK1 and PK2. […] Membranes from COS-7 cells transiently expressing PKR1 and PKR2 were used in competition binding assays. The results (FIG. 4A) indicate that PK1, PK2, and PK2β all bind PKR1 with high affinities, with the rank order of potency PK2>PK2β≅PK1.

[4] = target: T1, human prokineticin receptor 2 (PKR2); experiment: cell-based or functional assay; remark: listed apart in the source
[5] = target: T2, human prokineticin receptor 1 (PKR1); experiment: cell-based or functional assay; remark: listed apart in the source
[6] = target: T1, human prokineticin receptor 2 (PKR2); experiment: radioligand competition against 100 pM 125I-PK2-f on COS-7 cells expressing PKR2
Experimental: as §1, §2, §3

PKR2 [7] = target: T3, PKR2 (Homo sapiens, UniProt Q8NFJ6); experiment: Radioligand competition binding assay (125I-PK2-f), PKR2 expressing COS-7 cells; parameters: The full-length cDNA coding regions for both PKR1 and PKR2 were PCR-amplified from human fetal brain cDNA; expressed in transfected cells; host or cells: COS-7 (transient, pCIneo); conditions: FIG. 4B
Experimental: (§4) FIGS. 4A and 4B graphically illustrate that PKs bind the PKR1 and PKR2 with different affinities. COS-7 cells transiently expressing PKR1 or PKR2 were seeded to 96-well plates. ^125I-labeled PK2-f was added to each well at a final concentration of 100 pM. Different concentrations of PK1, PK2 or PK2β were added to the assays as the competitors. All assays were performed in triplicates. The results are mean values (±S.E.M) of triplicates. FIG. 4A provides the results of the binding assay using PKR1 expressing cells.
(§5) Expression, purification, and iodination of C-terminal FLAG-tagged PK2. C-terminal FLAG-tagged PK2 (PK2-f) was constructed as described (Soga et al., 2002). Two primers P9: ATCGAGAATTCGCCACCATGAGGAGCCTGTGCTGCGCCC (SEQ.ID.NO.:11) and P10: GGATCCCTACTTATCGTCGTCATCCTTATAATCCTTTTGGGCTAAACA (SEQ.ID.NO.:12) were used to amplify human whole brain cDNA (Clontech). The PCR-amplified PK2-f was cloned into a mammalian expression vector pCMV-sport1 (Invitrogen). The resulting clones were sequenced to confirm the identities and transfected into COS-7 cells using LipofectAmine (Invitrogen). Three days after transfection, the cell culture supernatant was collected and run through an ANTI-FLAG M2 agarose (Sigma) affinity column. The column was washed with PBS and eluted with […] Glycine HCl, pH 3.0. The eluted protein fraction was immediately neutralized with 1 M Tris-HCl, pH 8.0 and then further purified by reverse-phase HPLC using a C4 column (Vydac). The purified recombinant PK2-f protein was iodinated using Iodogen reagent (Pierce, Rockford, Ill.) and ^125I-NaI (PerkinElmer, Boston, Mass.) as described by Pierce. The iodinated PK2-f was purified by a G-50 (Amersham Pharmacia Biotech) gel filtration column.
(§6) Radio-Ligand Binding Assays. PKR1 and PKR2 in the expression vector pCIneo (Promega) were transfected into COS-7 cells using LipofectAmine (Invitrogen). […] After the plates were washed three times with ice cold PBS, Microscint-40 (Packard, Meriden, Conn.) was added and the plates were counted on a Topcount (Packard).

PKR1 = PKR1 (Homo sapiens, UniProt Q8TCW9); experiment: Radioligand competition binding assay (125I-PK2-f), PKR1 expressing COS-7 cells; parameters: The full-length cDNA coding regions for both PKR1 and PKR2 were PCR-amplified from human fetal brain cDNA; expressed in transfected cells; host or cells: COS-7 (transient, pCIneo); conditions: FIG. 4A
Experimental: as §4, §5, §6

PKR2 [8] = target: T3, PKR2; experiment: cAMP accumulation (cAMP [125I] FlashPlate) in HEK 293 cells co-expressing PKR2/Gs; type: cell-based; parameters: The full-length cDNA coding regions for both PKR1 and PKR2 were PCR-amplified from human fetal brain cDNA; expressed in transfected cells; host or cells: HEK293 (transient, pCIneo, co-transfected with Gs plasmid); conditions: FIG. 8C
Experimental: FIGS. 8B and 8C illustrate results from HEK 293 cells co-expressing PKR1/Gs (FIG. 8B) or PKR2/Gs (FIG. 8C) stimulated with different PKs at various concentrations (the accumulated cAMP was measured by a cAMP [^125I] FlashPlate Assay kit; the results are mean values (±S.E.M) of triplicate experiments (legend: ▪, PK1; ▴, PK2; ▾, PK2β)).
In a different experiment, PKR1 and PKR2 in the expression vector pCIneo (Promega) were co-transfected with the Gs expression plasmid into HEK293 cells using LipofectAmine (Invitrogen). Two days after transfection, cells were detached with 10 mM EDTA in PBS, resuspended in Dulbecco's Modified Eagle's Medium/F12 (DMEM/F12) media, and then plated on 96-well plates at a density of 50,000 cells per well. Two hours after the seeding, cells culture medium was replaced with DMEM/F12 containing 2 mM isobutylmethylxanthine (Sigma) and incubated for 30 min. Different concentrations of PK1, PK2 or PK2β were added to cells and incubated for an additional 30 min in a final volume of 200 μl/well. The reaction was stopped and cAMP was extracted by adding 20 μl of 0.5 N HCl to each well. Cell culture media were tested for cAMP concentrations by the cAMP [^125I] FlashPlate Assay kit (PerkinElmer) as described by the manufacturer.

[9] = target: T2, human prokineticin receptor 1 (PKR1); experiment: radioligand binding on PKR1 expressing cells
[10] = target: T1, human prokineticin receptor 2 (PKR2); experiment: radioligand binding on PKR2 expressing cells

T1 sequence (Q8NFJ6 whole entry): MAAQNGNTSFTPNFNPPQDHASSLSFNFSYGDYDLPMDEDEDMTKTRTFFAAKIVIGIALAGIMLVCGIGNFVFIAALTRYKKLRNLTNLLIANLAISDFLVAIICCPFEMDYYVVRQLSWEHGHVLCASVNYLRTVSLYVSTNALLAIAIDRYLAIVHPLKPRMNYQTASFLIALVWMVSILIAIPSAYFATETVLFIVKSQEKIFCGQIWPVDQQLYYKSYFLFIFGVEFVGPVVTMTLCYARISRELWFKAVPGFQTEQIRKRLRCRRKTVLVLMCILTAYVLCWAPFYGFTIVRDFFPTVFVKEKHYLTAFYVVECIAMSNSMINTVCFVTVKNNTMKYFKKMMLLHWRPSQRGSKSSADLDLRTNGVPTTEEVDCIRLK
T3 sequence (Q8NFJ6 whole entry): as above
T2 sequence (Q8TCW9 whole entry): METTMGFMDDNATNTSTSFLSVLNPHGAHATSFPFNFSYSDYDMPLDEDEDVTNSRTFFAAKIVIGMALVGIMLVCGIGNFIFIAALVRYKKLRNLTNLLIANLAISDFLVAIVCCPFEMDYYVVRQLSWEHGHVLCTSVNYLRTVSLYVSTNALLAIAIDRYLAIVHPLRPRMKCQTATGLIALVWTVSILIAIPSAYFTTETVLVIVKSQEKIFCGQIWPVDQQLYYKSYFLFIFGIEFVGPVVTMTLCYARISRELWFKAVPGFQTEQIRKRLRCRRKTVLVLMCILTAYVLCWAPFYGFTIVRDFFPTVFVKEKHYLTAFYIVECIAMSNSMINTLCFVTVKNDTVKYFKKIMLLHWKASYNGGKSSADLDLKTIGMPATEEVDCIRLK
PKR1, sequence (Q8TCW9 whole entry): as above

B1: human PK2β mature peptide (ligand)
chain: AVITGACDKDSQCGGGMCCAVSIWVKSIRICTPMGKLGDSCHPLTRKNNFGNGRQE
modifications: ends and bridges not checked; cysteine pairing not given here
notes: Proteolytically processed form of PK2L secreted by COS-7 cells; The FLAG tag was removed with enterokinase; also called processed product of PK2L
[1]
  EC50 for Ca2+ mobilization in PKR expressing HEK 293 cells: 80 nM
[2]
  EC50 for Ca2+ mobilization in PKR expressing HEK 293 cells: 1.5 nM
[3]
  IC50: 34.6 nM
[4]
  EC50 for stimulation of cAMP accumulation, HEK 293 cells: > 1000 nM
[5]
  EC50 for stimulation of cAMP accumulation, HEK 293 cells: 23.4 nM

B2: human prokineticin 2 (PK2) (ligand)
chain: AVITGACDKDSQCGGGMCCAVSIWVKSIRICTPMGKLGDSCHPLTRKVPFFGRRMHHTCPCLPGLACLRTSFNRFICLAQK
notes: Made in COS-7 cells with an N-terminal FLAG tag that was removed with enterokinase, then HPLC purified; also called mammalian Bv8
[1]
  EC50 for Ca2+ mobilization in PKR expressing HEK 293 cells: 3.6 nM
[2]
  EC50 for Ca2+ mobilization in PKR expressing HEK 293 cells: 0.8 nM
[3]
  IC50: 4.5 nM
[4]
  EC50 for stimulation of cAMP accumulation (β-galactosidase reporter), SK-N-MC cells: 12.1 nM
  EC50 for stimulation of cAMP accumulation, HEK 293 cells: 41 nM
[5]
  EC50 for stimulation of cAMP accumulation (β-galactosidase reporter), SK-N-MC cells: 1.27 nM
  EC50 for stimulation of cAMP accumulation, HEK 293 cells: 3.17 nM
[6]
  IC50: 6.4 nM

B3: prokineticin 2 (protein)
chain: B2 chain
notes: recombinant human PK2 peptide expressed in COS-7 cells
PKR2 [7]
  Binding to PKR2, in words: high affinity
PKR1
  Binding to PKR1, in words: high affinities
PKR2 [8]
  cAMP accumulation in PKR2 expressing HEK293 cells, in words: high-potency ligands

B4: 125I-labeled C-terminal FLAG-tagged PK2 (ligand)
chain: B2 chain
modifications: 125I on the Tyr in the FLAG-tag
notes: Expressed from human PK2 cDNA with its own signal peptide and secreted by COS-7 cells; also called PK2-f; not shown: C-terminal FLAG tag
[9]
  binding result: binds
[10]
  binding result: binds

B5: human prokineticin 1 (PK1) mature peptide (ligand, UniProt P58294 20-105, looked up)
chain: AVITGACERDVQCGAGTCCAISLWLRGLRMCTPLGREGEECHPGSHKVPFFRKRKHHTCPCLPNLLCSRFPDGRYRCSMDLKNINF
notes: mature; also called EG-VEGF
[1]
  EC50 for Ca2+ mobilization in PKR expressing HEK 293 cells: 7.7 nM
[2]
  EC50 for Ca2+ mobilization in PKR expressing HEK 293 cells: 1.1 nM
[3]
  IC50: 27.6 nM
[4]
  EC50 for stimulation of cAMP accumulation (β-galactosidase reporter), SK-N-MC cells: 20 nM
  EC50 for stimulation of cAMP accumulation, HEK 293 cells: 60 nM
[5]
  EC50 for stimulation of cAMP accumulation (β-galactosidase reporter), SK-N-MC cells: 8.34 nM
  EC50 for stimulation of cAMP accumulation, HEK 293 cells: 16.8 nM
[6]
  IC50: 52.2 nM

B6: prokineticin 1 (protein)
chain: B5 chain
notes: recombinant human PK1 mature peptide, also known as endocrine gland vascular endothelial growth factor
PKR2 [7]
  Binding to PKR2, in words: high affinity
PKR1
  Binding to PKR1, in words: high affinities
PKR2 [8]
  cAMP accumulation in PKR2 expressing HEK293 cells, in words: high-potency ligands

B7: 125I-labeled human PK1 (ligand, UniProt P58294 20-105, looked up)
chain: B5 chain
modifications: 125I at Tyr75
notes: mature; Told of only in the discussion, as an attempted radioligand
[9]
  binding result: binds
[10]
  binding result: binds
